Positions count from the first letter of the chain named.

The labels stand for the following.
B1: Clone 8.1 (VNAR)
VNAR: ARVDQTPQTITKETGESLTINCVLRDSNCALPSTYWYRKKSGSTNEESISKGGRYVETVNSGSKSFSLRINDLTVEDSGTYRCKVLRLLSSILRGCNYRKHDVYGDGTAVTVNA
notes: VNAR on phage; Clone 8 framework
B2: Clone 8.18 (VNAR)
VNAR: B1 VNAR with L86I, R87A, L88Q, I92K, L93Y, R94V
notes: as for B1
B3: Clone 8.26 (VNAR)
VNAR: B1 VNAR with L86I, R87A, L88S, L89A, S90F
notes: as for B1
B4: Clone 8.35 (VNAR)
VNAR: B1 VNAR with L86I, R87A, L88E, S90F
notes: as for B1
B5: Clone 8.40 (VNAR)
VNAR: B1 VNAR with L86I, R87A, L88Q, S90Y, S91V, I92G
notes: as for B1
B6: Clone 8.8 (VNAR)
VNAR: B1 VNAR with L86F, R87A, L88P
notes: as for B1
B7: Clone 8.20 (VNAR)
VNAR: B1 VNAR with L86I, R87A, L88Q, N97L, Y98D, R99K
notes: as for B1
B8: Clone 8.28 (VNAR)
VNAR: B1 VNAR with L86A, R87F, L88I
notes: as for B1
B9: Clone 8.4 (VNAR)
VNAR: B1 VNAR with L86K, R87L, L88W
notes: as for B1
B10: Clone 8.37 (VNAR)
VNAR: B1 VNAR with L86I, R87A, L88Q, I92Q, L93R, R94W
notes: as for B1
B11: Clone 8.41 (VNAR)
VNAR: B1 VNAR with L86I, R87A, L88P, L89Q, S90K, R99H, H101I
notes: as for B1
B12: Clone 8.32 (VNAR)
VNAR: B1 VNAR with L86I, R87A, L88Q, L93W, R94K, N97K
notes: as for B1
B13: Clone 8.3 (VNAR)
VNAR: B1 VNAR with L86V, L88F
notes: as for B1
B14: Clone 8.19 (VNAR)
VNAR: B1 VNAR with L86Q, R87S, L88Q, S91I, I92V
notes: as for B1
B15: Clone 8.31 (VNAR)
VNAR: B1 VNAR with L86I, R87A, L88Q, S90I, Y98K, R99N
notes: as for B1
B16: Clone 8.6 (VNAR)
VNAR: B1 VNAR with L86I, R87A, L88Q, L89W, S90W
notes: as for B1
B17: Clone 8.33 (VNAR)
VNAR: B1 VNAR with L86R, R87D, L88A
notes: as for B1
B18: Clone 8.16 (VNAR)
VNAR: B1 VNAR with L86I, R87A, L88K, S90F, R94C
notes: as for B1
B19: Clone 8.11 (VNAR)
VNAR: B1 VNAR with L86I, R87A, L88Q, L93Y, R94P
notes: as for B1
B20: Clone 8.42 (VNAR)
VNAR: B1 VNAR with L86I, R87A, L88Q, S90F, S91I, I92D
notes: as for B1
B21: Clone 8.5 (VNAR)
VNAR: B1 VNAR with L86I, R87A, L88Q, S90G, S91W, I92W
notes: as for B1
B22: Clone 8.2 (VNAR)
VNAR: B1 VNAR with R87F, L88N
notes: as for B1
B23: Clone 8.44 (VNAR)
VNAR: B1 VNAR with L86I, R87A, L88Q, R99L, K100S, H101M
notes: as for B1
B24: Clone 8.23 (VNAR)
VNAR: B1 VNAR with L86I, R87A, L88Q, S90P, S91K, I92Q
notes: as for B1
B25: Clone 8.10 (VNAR)
VNAR: B1 VNAR with L86I, R87A, L88Q, S90A, S91I, I92E
notes: as for B1
B26: Clone 8.7 (VNAR)
VNAR: B1 VNAR with L86I, R87A, L88Q, R94K, G95A, N97K
notes: as for B1
B27: Clone 8.25 (VNAR)
VNAR: B1 VNAR with L86I, R87A, L88Q, I92M, L93E, R94L
notes: as for B1
B28: Clone 8.27 (VNAR)
VNAR: B1 VNAR with L86Q, R87G, L88M
notes: as for B1
B29: Clone 8.29 (VNAR)
VNAR: B1 VNAR with L86I, R87A, L88Q, R94L, G95T, N97E
notes: as for B1
B30: Clone 8.30 (VNAR)
VNAR: B1 VNAR with L86S, R87M
notes: as for B1
B31: Clone 8.12 (VNAR)
VNAR: B1 VNAR with L86R, R87W, L88R
notes: as for B1
B32: Clone 8.14 (VNAR)
VNAR: B1 VNAR with L86I, R87A, L88Q, R94G, G95Y, N97Y
notes: as for B1
B33: Clone 8.15 (VNAR)
VNAR: B1 VNAR with L86M, R87W, L88N
notes: as for B1
B34: Clone 8.43 (VNAR)
VNAR: B1 VNAR with L86I, R87A, L88Q, R94K, G95P, N97W
notes: as for B1
B35: Clone 8.38 (VNAR)
VNAR: B1 VNAR with L86I, R87A, L88Q, S90V, S91L, I92N
notes: as for B1
B36: Clone 8.36 (VNAR)
VNAR: B1 VNAR with L86I, R87A, L88Q, R99W, K100R, H101W
notes: as for B1
B37: Clone 8.13 (VNAR)
VNAR: B1 VNAR with L86I, R87A, L88Q, S90A, S91L, I92A
notes: as for B1
B38: Clone 8.39 (VNAR)
VNAR: B1 VNAR with L86I, R87A, L88Q, R94D, G95D, N97E
notes: as for B1
B39: Clone 8.45 (VNAR)
VNAR: B1 VNAR with L86I, R87A, L88Q, R99N, K100M, H101E
notes: as for B1
B40: Clone 8.34 (VNAR)
VNAR: B1 VNAR with L86I, R87A, L88Q, R99I, K100A, H101Y
notes: as for B1
B41: Clone 8.21 (VNAR)
VNAR: B1 VNAR with L86I, R87A, L88H, I92F, L93R, R94D
notes: as for B1
B42: Clone 8.9 (VNAR)
VNAR: B1 VNAR with L86W, R87N, L88M
notes: as for B1
B43: Clone 8.22 (VNAR)
VNAR: B1 VNAR with L86I, R87A, L88Q, L89Q, S90K, R99H
notes: as for B1
B44: Clone 8.24 (VNAR)
VNAR: B1 VNAR with L86I, R87A, L88Q, R99F, K100F, H101P
notes: as for B1
B45: Clone 8.17 (VNAR)
VNAR: B1 VNAR with L86I, R87A, L88Y, L89R, S90K, L93V
notes: as for B1
B46: Clone 8.137 (VNAR)
VNAR: B1 VNAR with L86I, R87A, L88Q, R99F, K100G, H101K
notes: as for B1
B47: Clone 8.97 (VNAR)
VNAR: B1 VNAR with L86I, R87A, L88Q, R99N, K100I, H101D
notes: as for B1

T1 sequence (Q62351 89-763 limits assumed): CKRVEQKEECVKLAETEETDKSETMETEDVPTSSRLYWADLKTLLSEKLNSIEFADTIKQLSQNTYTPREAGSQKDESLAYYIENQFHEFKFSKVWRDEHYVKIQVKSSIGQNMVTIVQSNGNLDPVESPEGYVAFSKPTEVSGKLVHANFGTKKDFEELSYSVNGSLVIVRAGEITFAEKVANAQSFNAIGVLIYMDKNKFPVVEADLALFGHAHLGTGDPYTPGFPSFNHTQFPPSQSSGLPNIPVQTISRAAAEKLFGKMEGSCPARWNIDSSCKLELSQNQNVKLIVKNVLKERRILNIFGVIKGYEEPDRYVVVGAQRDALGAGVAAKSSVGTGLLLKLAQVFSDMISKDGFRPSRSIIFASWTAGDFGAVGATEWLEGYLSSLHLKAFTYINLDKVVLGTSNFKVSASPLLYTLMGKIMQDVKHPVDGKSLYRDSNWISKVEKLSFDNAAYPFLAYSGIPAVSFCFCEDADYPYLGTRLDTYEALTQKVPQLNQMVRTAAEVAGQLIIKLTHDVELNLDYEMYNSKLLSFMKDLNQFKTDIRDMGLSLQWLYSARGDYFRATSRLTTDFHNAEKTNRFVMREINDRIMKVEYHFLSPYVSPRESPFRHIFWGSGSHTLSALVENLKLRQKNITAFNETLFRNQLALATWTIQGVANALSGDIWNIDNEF

The first assay addresses T1, recombinant mouse TfR-1 (mouse, UniProt Q62351 89-763).
T1 construct: Recombinant protein coated at 1 ug/ml in the phage ELISA; also called mTfR1; mouse transferrin receptor-1
Put plainly: phage ELISA.
As for B1, the A450 worked out at 0.312 A450.

For B2, the A450 is 0.09 A450.

On to B3, for which the A450 came to 0.082 A450.

With B4, the A450 turned out to be 0.071 A450.

Consider B5, for which the A450 amounted to 0.07 A450.

B6: the A450 was determined as 0.118 A450.

B7: the A450 turned out to be 0.087 A450.

Consider B8, for which the A450 amounted to 0.077 A450.

In the case of B9, the A450 amounted to 0.188 A450.

Take B10: the A450 is 0.071 A450.

Turning to B11, the A450 is 0.068 A450.

B12: the A450 worked out at 0.074 A450.

Turning to B13, the A450 was 0.194 A450.

Turning to B14, the A450 was found to be 0.088 A450.

Regarding B15, the A450 was found to be 0.075 A450.

In the case of B16, the A450 is 0.164 A450.

For B17, the A450 was found to be 0.073 A450.

In the case of B18, the A450 turned out to be 0.092 A450.

As for B19, the A450 came to 0.101 A450.

In the case of B20, the A450 came to 0.068 A450.

In the case of B21, the A450 came out at 0.172 A450.

Consider B22, for which the A450 is 0.242 A450.

Turning to B23, the A450 amounted to 0.067 A450.

On to B24, for which the A450 was found to be 0.085 A450.

B25: the A450 was found to be 0.101 A450.

As for B26, the A450 came out at 0.123 A450.

On to B27, for which the A450 was 0.084 A450.

Regarding B28, the A450 came to 0.08 A450.

B29: the A450 was 0.077 A450.

Take B30: the A450 is 0.077 A450.

For the molecule B31, the A450 came to 0.1 A450.

Turning to B32, the A450 stood at 0.095 A450.

For B33, the A450 worked out at 0.095 A450.

As for B34, the A450 was 0.067 A450.

Take B35: the A450 was 0.071 A450.

Take B36: the A450 turned out to be 0.071 A450.

Take B37: the A450 is 0.096 A450.

Regarding B38, the A450 is 0.07 A450.

On to B39, for which the A450 was 0.067 A450.

B40: the A450 came to 0.072 A450.

For the molecule B41, the A450 amounted to 0.086 A450.

Regarding B42, the A450 came out at 0.108 A450.

Consider B43, for which the A450 is 0.086 A450.

Turning to B44, the A450 amounted to 0.084 A450.

In a further assay the target is T2, recombinant human TfR-1 (human, UniProt P02786 89-760).
T2 construct: Recombinant protein coated at 1 ug/ml in the phage ELISA; also called hTfR1; human transferrin receptor-1
T2 sequence (P02786 89-760 limits assumed): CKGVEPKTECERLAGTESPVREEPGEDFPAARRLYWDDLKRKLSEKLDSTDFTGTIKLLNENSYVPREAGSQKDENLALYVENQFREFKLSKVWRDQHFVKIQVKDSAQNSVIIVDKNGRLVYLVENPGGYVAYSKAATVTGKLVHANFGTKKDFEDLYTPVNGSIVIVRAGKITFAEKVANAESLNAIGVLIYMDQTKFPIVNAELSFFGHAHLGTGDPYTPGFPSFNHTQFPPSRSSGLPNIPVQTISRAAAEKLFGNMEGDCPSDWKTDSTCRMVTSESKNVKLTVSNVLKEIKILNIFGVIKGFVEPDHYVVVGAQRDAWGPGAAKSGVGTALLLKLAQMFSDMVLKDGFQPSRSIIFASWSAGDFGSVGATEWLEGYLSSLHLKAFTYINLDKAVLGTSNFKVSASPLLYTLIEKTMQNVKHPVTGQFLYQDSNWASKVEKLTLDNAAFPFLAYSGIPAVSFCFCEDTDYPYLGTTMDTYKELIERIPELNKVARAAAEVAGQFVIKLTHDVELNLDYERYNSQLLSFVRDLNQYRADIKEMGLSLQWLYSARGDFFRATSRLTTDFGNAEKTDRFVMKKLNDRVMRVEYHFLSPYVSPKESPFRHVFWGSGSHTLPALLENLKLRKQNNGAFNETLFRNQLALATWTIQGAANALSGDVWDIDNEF
The assay can be described thus: phage ELISA.
As to B1, the A450 came to 0.371 A450.

For B2, the A450 was 0.06 A450.

B3: the A450 was determined as 0.087 A450.

Take B4: the A450 was determined as 0.078 A450.

B45: the A450 stood at 0.091 A450.

For B46, the A450 was determined as 0.076 A450.

For B5, the A450 amounted to 0.066 A450.

B6: the A450 came to 0.103 A450.

In the case of B7, the A450 turned out to be 0.084 A450.

For the molecule B8, the A450 was 0.085 A450.

Consider B9, for which the A450 was 0.173 A450.

Take B10: the A450 came out at 0.069 A450.

As to B11, the A450 turned out to be 0.072 A450.

As to B12, the A450 was 0.065 A450.

For B13, the A450 was 0.27 A450.

In the case of B14, the A450 was found to be 0.078 A450.

Regarding B15, the A450 was found to be 0.077 A450.

Turning to B16, the A450 turned out to be 0.199 A450.

Turning to B17, the A450 was determined as 0.09 A450.

Regarding B18, the A450 was found to be 0.138 A450.

For B19, the A450 stood at 0.066 A450.

For B20, the A450 is 0.062 A450.

As to B21, the A450 was determined as 0.152 A450.

Take B22: the A450 was found to be 0.315 A450.

B23: the A450 was found to be 0.056 A450.

On to B24, for which the A450 was determined as 0.055 A450.

In the case of B25, the A450 was found to be 0.072 A450.

Turning to B26, the A450 was determined as 0.087 A450.

B47: the A450 worked out at 0.057 A450.

As for B27, the A450 worked out at 0.06 A450.

On to B28, for which the A450 worked out at 0.079 A450.

For B29, the A450 came out at 0.059 A450.

With B30, the A450 came out at 0.114 A450.

For B31, the A450 worked out at 0.108 A450.

Turning to B32, the A450 was 0.067 A450.

Turning to B33, the A450 came out at 0.095 A450.

As for B34, the A450 is 0.093 A450.

Take B35: the A450 is 0.075 A450.

As to B36, the A450 turned out to be 0.058 A450.

For the molecule B37, the A450 is 0.075 A450.

In the case of B38, the A450 is 0.063 A450.

In the case of B39, the A450 was determined as 0.06 A450.

Consider B40, for which the A450 amounted to 0.078 A450.

Consider B41, for which the A450 stood at 0.058 A450.

Consider B42, for which the A450 is 0.119 A450.

With B43, the A450 was found to be 0.066 A450.

B44: the A450 was found to be 0.093 A450.

The values are drawn from patent US20210395381A1 (OSSIANIX, published 2021).
